Laboratory results taken from patent US20130230533A1 (Regeneron, published 2013).

T1: Monomeric human CD48-mmH (human)
T1 construct: also called soluble CD48 expressed with a myc-myc-hexa-histidine C-terminal tag [mmH]
T1 chain: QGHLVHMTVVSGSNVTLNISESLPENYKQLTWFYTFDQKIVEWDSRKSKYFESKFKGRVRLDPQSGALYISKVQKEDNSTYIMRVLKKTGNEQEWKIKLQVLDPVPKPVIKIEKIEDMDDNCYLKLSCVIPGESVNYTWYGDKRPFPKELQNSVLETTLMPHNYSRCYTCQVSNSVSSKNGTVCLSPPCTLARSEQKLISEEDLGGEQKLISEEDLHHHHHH

T2: Dimeric human CD48-mFc (human)
T2 chain: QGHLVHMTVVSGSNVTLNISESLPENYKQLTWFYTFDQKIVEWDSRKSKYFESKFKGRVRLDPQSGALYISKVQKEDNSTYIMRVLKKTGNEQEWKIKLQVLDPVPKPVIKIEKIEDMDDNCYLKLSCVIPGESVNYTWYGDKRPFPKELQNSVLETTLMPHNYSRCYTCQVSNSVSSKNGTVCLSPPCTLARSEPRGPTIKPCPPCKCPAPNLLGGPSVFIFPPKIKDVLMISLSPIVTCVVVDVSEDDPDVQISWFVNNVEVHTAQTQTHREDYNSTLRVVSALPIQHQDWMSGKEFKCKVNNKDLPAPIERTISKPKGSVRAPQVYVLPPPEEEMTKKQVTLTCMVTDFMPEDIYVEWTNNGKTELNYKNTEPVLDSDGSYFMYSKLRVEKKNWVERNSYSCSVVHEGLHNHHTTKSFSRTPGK

T3: Dimeric human CD48-mFc (human)
T3 construct: the whole entry is the construct; also called hCD48-mFc
T3 chain: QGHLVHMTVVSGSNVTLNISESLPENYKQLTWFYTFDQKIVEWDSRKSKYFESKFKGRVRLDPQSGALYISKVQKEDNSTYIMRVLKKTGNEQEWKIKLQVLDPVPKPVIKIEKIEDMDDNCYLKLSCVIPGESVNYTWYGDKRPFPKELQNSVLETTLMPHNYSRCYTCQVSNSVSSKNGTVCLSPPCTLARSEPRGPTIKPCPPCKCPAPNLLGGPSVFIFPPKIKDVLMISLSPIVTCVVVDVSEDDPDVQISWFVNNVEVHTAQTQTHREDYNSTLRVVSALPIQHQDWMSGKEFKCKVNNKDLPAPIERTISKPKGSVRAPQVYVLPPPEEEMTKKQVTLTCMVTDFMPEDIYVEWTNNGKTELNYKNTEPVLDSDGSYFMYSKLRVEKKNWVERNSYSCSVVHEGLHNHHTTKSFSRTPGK

T4: Monomeric human CD48-mmH (human)
T4 chain: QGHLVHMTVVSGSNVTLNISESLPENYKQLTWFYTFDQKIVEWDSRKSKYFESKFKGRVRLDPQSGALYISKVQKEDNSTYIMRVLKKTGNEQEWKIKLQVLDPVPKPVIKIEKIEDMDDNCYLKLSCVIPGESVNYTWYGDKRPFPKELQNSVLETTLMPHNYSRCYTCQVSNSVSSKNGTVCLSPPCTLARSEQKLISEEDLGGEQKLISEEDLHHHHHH


Experiments:
[1] = biological target: T1, Monomeric human CD48-mmH; test: SPR (Biacore T100), 25 C, antibody captured by anti-Fc, monomeric CD48-mmH in solution
Description: (§1) Measurements were conducted on a T100-2 BIACORE™ instrument (Biacore Life Sciences division of GE Healthcare, Piscataway, N.J.). Antibodies (either with mouse Fc [designated “H2M” or “H3M”] or human IgG4 Fc [designated “H4H”]) were captured through an anti-Fc chip surface, and CD48 was flowed over the surface either in a monomeric (soluble CD48 expressed with a myc-myc-hexa-histidine C-terminal tag [mmH]) or dimeric (soluble CD48 expressed with a C-terminal Fc fusion [mFc]) format.
(§2) The soluble CD48 was applied to the flow cell in separate injections at different concentrations, and kinetic association (kₐ) and dissociation (kd) rate constants were determined by fits to the kinetic binding data using Biacore software. Binding dissociation equilibrium constants and dissociation half-times were calculated from the kinetic rate constants as: KD=kd/kₐ; t_{1/2}=(ln 2/kd) (units: ka=M⁻¹*s⁻¹; kd=s⁻¹; KD=M; T½=min) (Tables 3-6).

[2] = biological target: T2, Dimeric human CD48-mFc; test: SPR (Biacore T100), 25 C, antibody captured by anti-Fc, dimeric CD48-mFc in solution
Description: as §1, §2

[3] = biological target: T3, Dimeric human CD48-mFc; test: SPR (Biacore), antibody captured by anti-Fc, CD48 in solution, 37 C
Description: as §1, §2

[4] = biological target: T4, Monomeric human CD48-mmH; test: as above
Description: as §1, §2

Row | Kd [1] [nM] | T½ [1] [min] | koff [1] [s⁻¹] | kon [1] [M⁻¹ s⁻¹] | Kd [2] [nM] | T½ [2] [min] | koff [2] [s⁻¹] | kon [2] [M⁻¹ s⁻¹] | Kd [3] [nM] | T½ [3] [min] | koff [3] [s⁻¹] | kon [3] [M⁻¹ s⁻¹] | Kd [4] [nM] | T½ [4] [min] | koff [4] [s⁻¹] | kon [4] [M⁻¹ s⁻¹] | Binder
1 | 23.5 | 4 | 0.00285 | 121000 | 1.03 | 43 | 0.000266 | 259000 |  |  |  |  |  |  |  |  | H2M1764N (antibody, mouse IgG2, V domains shown, Human variable domains, mouse IgG2 Fc (prefix H2M)) VH: QVQLVESGGGVVQPGRSLRLSCAASGFTFSDYGMHWVRQAPGKGLEWVAVIWNDGSNKNYADSVKGRFSISSDSSKNTLYLHMNSLRAEDTAVYYCARSLYSTSPWYFDLWGRGTLVTVSS VL: not shown
2 | 23.6 | 5 | 0.00248 | 105000 | 0.226 | 191 | 6.05e-05 | 268000 |  |  |  |  |  |  |  |  | H4H1764N (antibody, human IgG4, V domains shown, Human IgG4 Fc (prefix H4H)) VH: QVQLVESGGGVVQPGRSLRLSCAASGFTFSDYGMHWVRQAPGKGLEWVAVIWNDGSNKNYADSVKGRFSISSDSSKNTLYLHMNSLRAEDTAVYYCARSLYSTSPWYFDLWGRGTLVTVSS VL: not shown
3 |  |  |  |  |  |  |  |  | 0.247 | 51 | 0.000227 | 920000 | 14.7 | 4 | 0.00314 | 214000 | H2M1707N (antibody, V domains shown, Human variable domains, mouse IgG2 Fc (H2M)) VH: EGQLLESGGGLAQPGGSLRLSCAASGITFGRYAMSWVRQAPGKGLEWVSLISGSGGSTYHADSVKGRFTISRDNSKNTLYLQMNSLRAEDTAVYYCAIYNNYNWFDPWGQGTLVTVSS VL: EIVLTQSPGTLSLSPGERATLSCRASQSVSSNYLAWYQQKPGQAPRLLIYDASSRATDIPDRFSGSGSGTDFTLTISRLEPEDFAVYYCQQYGSSPRTFGQGTKVEIK
4 |  |  |  |  |  |  |  |  | 0.248 | 31 | 0.000377 | 1.52e+06 | 35.1 | 0 | 0.04 | 1.14e+06 | H2M1709N (antibody, mouse IgG2, V domains shown, Human variable domains, mouse IgG2 Fc (H2M)) VH: QVQLVQSGAEVKKPGASVKVSCKVSGYTLTELSIHWVRQAPGKGLEWMGGFDPEDGETIYAQKFQGRVNMTEDTSTDTAYMELSSLRSDDTTVYFCASLLPYFDYWGQGTLVTVSS VL: EIVLTQSPGTLSLSPGERATLSCRASQSVSSSYLAWYQQKPGQAPRLLIYGASSRATGIPDRFSGSGSGTDFTLSISRLEPEDFAVYFCQQYGSSMYTFGQGTKLEIK
5 | 17 | 14 | 0.000849 | 50000 | 1.6 | 50 | 0.00023 | 144000 |  |  |  |  |  |  |  |  | H2M1811N (antibody, mouse IgG2, V domains shown, Human variable domains, mouse IgG2 Fc (prefix H2M)) VH: QVQLVQSGAEAREPGASVRVSCKASGYTFTDYFIHWVRQAPGQGLEWMGWINPNSGATNFAQKFQGRVTMTRDTSLITAYMDLSRLKSDDAAVFYCARDVDGSGWYLDFWGQGTLVTVSS VL: EIVLTQSPATLSLSPGERATLSCRASQSVSIYLAWYQQKPGQAPRLLIYDASNRATGIPARFSGSGSGTDFTLTISRLEPEDFAVYYCQQRSDWPPSITFGQGTRLEIK
6 |  |  |  |  |  |  |  |  | 0.885 | 27 | 0.000426 | 481000 | 153 | 2 | 0.0052 | 34000 | H2M1710N (antibody, mouse IgG2, V domains shown, Human variable domains, mouse IgG2 Fc (H2M)) VH: QVQLVQSGADMKKPGASVRVSCKASGYTFTDYFIHWVRQAPGQGPEWMGWINPDSGATNYAQQFQGRVTMTRDTSISATYMEMSRLRSDDTAVFYCARDKDGSGWYLDDWGQGTLVTVSS VL: EIVLTQSPATLSLSPGERATLSCRASQSVNIYLAWYQQKPGQAPRLLIYDASNRASGIPARFSGSGSGTDFTLTISSLEPEDFAVYYCQQRSNWPPSITFGQGTRLEIK
